The source of these data is US12247238B2, “Mogroside biocatalysis methods and products” (The Coca-Cola Company, priority 2019, dated 2025).

What all share (assay type): biochemical
Series [1] in a line: Example 8 standard mogroside biocatalytic assay, Mog V as substrate. The settings on record: 37° C., pH 5.6; for % Siamenoside I: 72 hr. The procedure: (§1) Standard mogroside biocatalytic assays were performed at 37° C. in 500 μL volume 50 mM sodium citrate buffer pH 5.6, 10 mM magnesium chloride, 10 mM substrate (typically mogroside V or Siamenoside I) and 50 μg mL−1 enzyme, and incubated for 24-96 hours. Mogroside glucosidation activity was detected by direct HPLC detection and quantification of mogroside V substrate and mogroside products from filtered reaction supernatant, and quantified by comparison with standard curves based on peak area (see Analytical Methods).
(§2) Analytical Method: Mogroside compounds HPLC separation and quantification was conducted using a Synergi Hydro-RP column (250 mm×4.6 mm or 150 mm×4.6 mm) with an initial flow rate of 1 mL min−1 and a water: acetonitrile gradient as per below, similar to that described by Zhou et al. (WO 2014/150127). Compounds were detected at 210 nm using diode array detector (Agilent Technologies, USA), and calibration curves established using standard curves from 0.1 to 10 mM. 150 mm column retention times in minutes: mog V 9.5, sia 1 10.6, mog IVa 10.5, mog IV 11.3, mog III 12.6, mogl I 13.2. 250 mm column retention times: mog V 12.3, sia 1 13.2, mog IVa 13.5, mog IV 14.1, mog III 15.3, mog II 16.2.

Assay in series [2]: as above
As to conditions: 37° C., pH 5.6.

Series [3] is described as follows: β-galactosidase ONPG activity assay. The settings on record: oNPG substrate, over 30 minutes. The method in brief: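 ONPG hydrolysis was run at room temperature in 50 mM sodium citrate pH 5.6 with 10 mM MgCl₂, 100 mM KCl and 2 mM ONPG, followed by o-nitrophenol release at 420 nm. Enzyme came from methanol-induced (72 h) culture supernatant, assayed over 30 min. Vmax was derived, with kinetics from varied substrate where needed.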

Series [4] can be described thus: Example 8 standard mogroside biocatalytic assay, Sia I as substrate. As to conditions: 37° C., pH 5.6. The method, then: as §1, §2
Series [5] in a line: Standard mogroside biocatalytic assay, mogroside V substrate. As to conditions: for Initial Rate / Reaction Progress / Sia 1: Mogroside hydrolysis; for Initial Rate / Reaction Progress / Sia 1 / Sia:MogIII / Sia:MogIV: 37 C., pH 5.6; for Reaction Progress / Sia 1 / Sia:MogIII / Sia:MogIV: 72 h; for Sia:MogIII / Sia:MogIV: product ratio. The method, then:
(§3) Standard mogroside biocatalytic assays were performed at 37° C. in 500 μL, volume 50 mM sodium citrate buffer pH 5.6, 10 mM magnesium chloride, 10 mM substrate (typically mogroside V) and 50 μg mL−1 enzyme, and incubated for 24-96 hours. Mogroside glucosidation activity was detected by direct HPLC detection and quantification of mogroside V substrate and mogroside products from filtered reaction supernatant, and quantified by comparison with standard curves based on peak.
(§4) Mogroside compounds HPLC separation and quantification was conducted using a Synergi Hydro-RP column (250 mm×4.6 mm or 150 mm×4.6 mm) with an initial flow rate of 1 mL min−1 and a water: acetonitrile gradient as per below, similar to that described by Zhou et al. (WO 2014/150127). Compounds were detected at 210 nm using diode array detector (Agilent Technologies, USA), and calibration curves established using standard curves from 0.1 to 10 mM.
Cells expressing enzyme variants grown in buffered minimal medium were induced for 72 hr with 1% methanol (refreshed every 24 hr), the culture supernatant harvested and assayed for standard ONPG activity over 30 minutes and mogroside V activity at pH 5.6, 37° C. for 72 hrs. The resultant activity data (Table 2) identified E200 and D258 as the likely catalytic pair for acid/base and nucleophilic attack of mogroside V by the A. oryzae β-glucosidase enzyme.

Series [6] can be described thus: Mogroside biocatalytic assay, Siamenoside I substrate. As to conditions: SiaI Substrate (10 mM) (24 h), pH 5.6, 37° C. The procedure:
as §3, §4

The nature of series [7]: Mogroside biocatalytic assay, equimolar MogV:SiaI substrate. The method, then:
as §3, §4

[8] abbreviates: Equimolar MogV:SiaI Substrate (5 mM each) (48 h), pH 5.6, 37° C.
Where [9] appears, read: Mog V Substrate (10 mM) (24 h), pH 5.6, 37° C.

Positions count from the first letter of the chain named. In names and notes the source's numbering stands. Entries after “also recorded” stand apart in the source; their conditions may differ.

One may read the Km as the concentration of substrate that gives half-maximal velocity. As usually defined, the kcat is the number of substrate molecules converted per active site and unit of time at saturation.

B1: D258E: A. oryzae β-galactosidase variant, D258E (protein, UniProt Q2UCU3 19-1005, looked up, variant D258E)
Beta-galactosidase A: ASIKHRLNGFTILEHPDPAKRDLLQDIVTWDDKSLFINGERIMLFSGEVHPFRLPVPSLWLDIFHKIRALGFNCVSFYIDWALLEGKPGDYRAEGIFALEPFFDAAKEAGIYLIARPGSYINAEVSGGGFPGWLQRVNGTLRSSDEPFLKATDNYIANAAAAVAKAQITNGGPVILYQPENEYSGGCCGVKYPDADYMQYVMDQARKADIVVPFISNDASPSGHNAPGSGTGAVDIYGHESYPLGFDCANPSVWPEGKLPDNFRTLHLEQSPSTPYSLLEFQAGAFDPWGGPGFEKCYALVNHEFSRVFYRNDLSFGVSTFNLYMTFGGTNWGNLGHPGGYTSYDYGSPITETRNVTREKYSDIKLLANFVKASPSYLTATPRNLTTGVYTDTSDLAVTPLIGDSPGSFFVVRHTDYSSQESTSYKLKLPTSAGNLTIPQLEGTLSLNGRDSKIHVVDYNVSGTNIIYSTAEVFTWKKFDGNKVLVLYGGPKEHHELAIASKSNVTIIEGSDSGIVSTRKGSSVIIGWDVSSTRRIVQVGDLRVFLLDRNSAYNYWVPELPTEGTSPGFSTSKTTASSIIVKAGYLLRGAHLDGADLHLTADFNATTPIEVIGAPTGAKNLFVNGEKASHTVDKNGIWSSEVKYAAPEIKLPGLKDLDWKYLDTLPEIKSSYDDSAWVSADLPKTKNTHRPLDTPTSLYSSDYGFHTGYLIYRGHFVANGKESEFFIRTQGGSAFGSSVWLNETYLGSWTGADYAMDGNSTYKLSQLESGKNYVITVVIDNLGLDENWTVGEETMKNPRGILSYKLSGQDASAITWKLTGNLGGEDYQDKVRGPLNEGGLYAERQGFHQPQPPSESWESGSPLEGLSKPGIGFYTAQFDLDLPKGWDVPLYFNFGNNTQAARAQLYVNGYQYGKFTGNVGPQTSFPVPEGILNYRGTNYVALSLWALESDGAKLGSFELSYTTPVLTGYGNVESPEQPKYEQRKGAY
For B1, in series [1], the “Reaction progress (% conversion)” value is 99% and the “% Siamenoside I” value turned out to be 55%. In addition, in series [2], the Km is 2500 ± 200 µM and the kcat was determined as 966 ± 26 s⁻¹. In series [3], this molecule registered an oNPG of 41.4 ± 0.9 mAu/min/mg. Also, in series [4], the Km is 3310 ± 800 µM and the catalytic constant (kcat) turned out to be 36.8 ± 3.1 s⁻¹. In series [5], the “rate of mogroside hydrolysis (in words)” value is recorded as “increased initial rate of mogroside hydrolysis; also recorded: increased rate of mogroside V hydrolysis”, the “Initial Rate” value was 2.70 µmol/min/mg, the “Reaction Progress” value is 99% and the “Sia 1” value is 55%. For the same molecule, in series [5], the “Sia:MogIII” value stood at 2.8 and the “Sia:MogIV” value stood at 2.1.

B2: E142A: A. oryzae β-galactosidase variant, E142A (protein, UniProt Q2UCU3 19-1005, looked up, variant E142A)
Beta-galactosidase A: B1 Beta-galactosidase A with E124A, E240D
Regarding B2, in series [1], the “Reaction progress (% conversion)” value was 91% and the “% Siamenoside I” value turned out to be 78 ± 2.8%. Besides, in series [2], the Michaelis constant (Km) was found to be 2000 ± 400 µM and the kcat was 741 ± 38 s⁻¹. For the same molecule, in series [6], the “mog II” value worked out at 3 molar percentage, the “mog III” value was found to be 12 molar percentage and the “sia I” value came out at 84 molar percentage. Also, in series [7] (setting [8]), the “mog II” value is 0.1 molar percentage, the “mog III” value is 3 molar percentage, the “mog IV” value was found to be 0.2 molar percentage and the “mog V” value was determined as 10 molar percentage. Moreover, the “sia I” value in series [7] (setting [8]) is listed as 82 molar percentage. Besides, the “effectiveness of Siamenoside I as a substrate in the presence of mogroside V (in words)” value in series [7] (comparison of wildtype and variant) is recorded as “reducing the effectiveness of Siamenoside I as a substrate”. In series [3], this molecule came in with an oNPG of 33.6 ± 0.4 mAu/min/mg. In series [4], the Km turned out to be 4420 ± 900 µM and the kcat came out at 3.9 ± 0.7 s⁻¹. For the same molecule, in series [5], the “Siamenoside I production/yield from mogroside V (in words)” value is recorded as “increased ratio of Siamenoside I production; also recorded: increased Siamenoside I yield”, the “Initial Rate” value is 2.16 µmol/min/mg, the “Reaction Progress” value was determined as 89% and the “Sia 1” value came out at 73%. In series [5], the “Sia:MogIII” value is 16.2 and the “Sia:MogIV” value turned out to be 13. In series [5] (setting [9]), the “mog III” value is reported as 1 molar percentage, the “mog V” value came out at 67 molar percentage and the “sia I” value is recorded as 32 molar percentage.

B3: E142A RRK77: β-galactosidase variant, RRK substitutions ENR with E142A (protein, UniProt Q2UCU3 19-1005, looked up, variant E142A G204E C205N V208R)
Beta-galactosidase A: B1 Beta-galactosidase A with E124A, G186E, C187N, V190R, E240D
Consider B3, for which, in series [1], the “Reaction progress (% conversion)” value is 89% and the “% Siamenoside I” value is on record as 76 ± 3.1%.
